# From US20120219498A1 (RAMOT AT TEL AVIV UNIVERSITY, published 2012)
# B1: ADOPep1 (peptide)
# peptide: HWRRAHLLPRLP
# notes: Unlabelled synthetic peptide (SynPep); also called non-biotinylated ADOPep1
# B2: ADOPep2 (peptide)
# peptide: ENFLHWRRAHLL
# B3: ADOPep3 (peptide)
# peptide: AVTLENFLHWRR
# B4: Motif B peptide (HWRRA) (peptide)
# peptide: HWRRA
# notes: also called peptide motif B
# Assays:
# [1] = biological target: T1, glucose-regulated protein (GRP78) (Homo sapiens, UniProt P11021 19-654); assay: cell ELISA on endothelial cells, peptide 2 hours, then competitor anti-GRP78 antibody at 2 ug/ml
# T1 construct: Endogenous GRP78: on the membrane of human umbilical vein endothelial cells (HUVEC) or tumor cell lines in FACS and cell ELISA; from HUVEC lysate in the immunoprecipitation and Western blot experiments; also called GRP78 receptor; ADOPeps receptor
# T1 sequence (P11021 19-654 limits assumed): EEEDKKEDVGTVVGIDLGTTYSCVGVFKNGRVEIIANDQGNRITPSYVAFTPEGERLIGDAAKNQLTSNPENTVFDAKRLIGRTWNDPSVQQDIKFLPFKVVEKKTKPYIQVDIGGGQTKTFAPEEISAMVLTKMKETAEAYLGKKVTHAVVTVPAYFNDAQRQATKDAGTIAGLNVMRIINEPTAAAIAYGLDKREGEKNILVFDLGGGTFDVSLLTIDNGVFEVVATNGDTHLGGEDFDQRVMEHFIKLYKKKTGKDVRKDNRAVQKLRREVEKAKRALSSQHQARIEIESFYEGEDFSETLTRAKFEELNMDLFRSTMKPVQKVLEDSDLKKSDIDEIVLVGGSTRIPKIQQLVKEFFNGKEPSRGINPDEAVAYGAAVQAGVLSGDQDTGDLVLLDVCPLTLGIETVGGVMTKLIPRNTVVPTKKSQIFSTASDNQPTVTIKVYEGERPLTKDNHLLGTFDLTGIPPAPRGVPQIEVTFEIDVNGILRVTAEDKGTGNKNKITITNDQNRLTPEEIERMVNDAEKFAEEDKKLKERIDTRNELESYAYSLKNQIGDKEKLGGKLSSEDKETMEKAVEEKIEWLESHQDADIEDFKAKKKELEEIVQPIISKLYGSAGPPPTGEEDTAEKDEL
# Procedure: Endothelial cells were incubated for 2 hours with increasing concentrations of ADOPeps, following which the cells were incubated for another 1 hour with the 2 μg/ml of anti-GRP78 antibody and the amount of bound antibody on EC was detected using an ELISA reader.
# Endothelial cells (20,000 per well) were seeded in 96 well plates for 24 hours in the presence of the complete medium. Plates were washed with PBS over night and rehydrated with PBS, 0.1% Na Azide and 5% FCS. ADOPep1, ADOPep2 and ADOPep3 were added to washed plates for 2 hours at room temperature at concentrations of 0.01, 0.1 and 1 microgram per ml. Anti-GRP78 antibody (goat polyclona IgG, Santa Cruz Biotechnology, Calif., USA) was added to the plates for 1 hour at room temperature at a concentration of 2 micrograms/ml per well. After washing, bound anti-GRP78 antibody was detected by incubation with anti-goat IgG Peroxidase conjugated (Jackson Immuneresearch Laboratories, PA, USA). After 5 washes with PBS-0.1% Tween 20, 100 μl/well of TMB+ Substrate-Chromogen (DAKOCytomation, CA, USA) was added for a maximum of 30 minutes. Reaction was stopped with 1N HCl. Color developed was determined by an ELISA reader at 450 nm.
# [2] = biological target: T1, glucose-regulated protein (GRP78); assay: endothelial cells, normoxia, peptide at 0.01, 0.1 or 1 ng/ml for 2 hours, then competitor biotinylated ADOPep1 at 2 ug/ml, HRP-streptavidin
# Procedure: Endothelial cells were incubated for 2 hours under normoxia conditions in the presence of increasing concentrations (0.01, 0.1 or 1 ng/ml) of peptides having the amino acid sequences corresponding to Motif A (HWRRP; SEQ ID NO:7), Motif B (HWRRA; SEQ ID NO:8), Motif C (AHLLP; SEQ ID NO:6) or non-biotinylated ADOPep1 (SEQ ID NO:2) and then were incubated for 1 hour with biotinylated ADOPep1 (2 μg/ml) and the binding of biotinylated ADOPep1 to endothelial cells was determined using HRP-streptavidin.
binder,measurement,setting,value
B1,percent inhibition of binding of anti-GRP78 antibody,[1],≤ 50%
B2,percent inhibition of binding of anti-GRP78 antibody,[1],≤ 50%
B3,percent inhibition of binding of anti-GRP78 antibody,[1],≤ 50%
B4,binding result,[2],binds
